Reference: the supplement of paper PMC10065799, “High-throughput profiling of sequence recognition by tyrosine kinases and SH2 domains using bacterial peptide display” (eLife, 2023)

Columns and labels:
FGFR1 = FGFR1 (UniProt P11362); experiment: phosphorylation enrichment, bacterial display (enrichment ratio); higher = better substrate or ligand; peptides without Tyr show the background
FGFR3 = FGFR3 (UniProt P22607); experiment: as above
AncSZ = experiment: as above
EPHB2 = EPHB2 (UniProt P29323); experiment: as above
Sequence of EPHB2 (P29323 whole entry, looked up): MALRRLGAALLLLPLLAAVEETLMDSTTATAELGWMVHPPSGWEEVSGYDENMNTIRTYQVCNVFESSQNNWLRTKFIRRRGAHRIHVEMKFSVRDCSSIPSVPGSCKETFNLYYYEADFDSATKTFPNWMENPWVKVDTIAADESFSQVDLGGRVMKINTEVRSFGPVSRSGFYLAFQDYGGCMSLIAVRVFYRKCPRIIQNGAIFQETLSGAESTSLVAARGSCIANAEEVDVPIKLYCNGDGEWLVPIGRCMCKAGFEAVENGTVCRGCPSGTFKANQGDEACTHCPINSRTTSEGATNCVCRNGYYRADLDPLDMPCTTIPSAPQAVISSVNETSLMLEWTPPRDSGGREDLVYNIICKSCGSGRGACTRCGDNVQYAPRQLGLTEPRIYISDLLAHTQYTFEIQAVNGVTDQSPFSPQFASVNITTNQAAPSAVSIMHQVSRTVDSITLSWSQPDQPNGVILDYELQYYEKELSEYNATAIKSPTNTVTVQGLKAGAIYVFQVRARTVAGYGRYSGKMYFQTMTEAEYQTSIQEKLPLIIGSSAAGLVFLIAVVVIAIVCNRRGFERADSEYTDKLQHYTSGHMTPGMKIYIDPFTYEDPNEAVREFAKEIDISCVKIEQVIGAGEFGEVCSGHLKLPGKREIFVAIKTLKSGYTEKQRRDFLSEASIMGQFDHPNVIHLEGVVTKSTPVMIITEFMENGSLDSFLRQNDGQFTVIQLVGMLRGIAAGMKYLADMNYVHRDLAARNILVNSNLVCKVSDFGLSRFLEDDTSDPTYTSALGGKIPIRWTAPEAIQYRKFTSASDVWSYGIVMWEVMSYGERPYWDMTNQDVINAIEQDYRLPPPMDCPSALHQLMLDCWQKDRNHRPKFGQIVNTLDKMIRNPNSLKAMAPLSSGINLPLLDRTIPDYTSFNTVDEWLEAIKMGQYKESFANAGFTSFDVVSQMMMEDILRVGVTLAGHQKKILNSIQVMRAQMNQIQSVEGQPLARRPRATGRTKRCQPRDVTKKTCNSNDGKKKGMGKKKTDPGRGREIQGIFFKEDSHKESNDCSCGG

c-Abl (mouse) = experiment: as above
Hck = Hck (UniProt P08631); experiment: as above
Fes = Fes (UniProt P07332); experiment: as above
Fer (mouse) = experiment: as above
EPHB1 = EPHB1 (UniProt P54762); experiment: as above
Sequence of EPHB1 (P54762 whole entry, looked up): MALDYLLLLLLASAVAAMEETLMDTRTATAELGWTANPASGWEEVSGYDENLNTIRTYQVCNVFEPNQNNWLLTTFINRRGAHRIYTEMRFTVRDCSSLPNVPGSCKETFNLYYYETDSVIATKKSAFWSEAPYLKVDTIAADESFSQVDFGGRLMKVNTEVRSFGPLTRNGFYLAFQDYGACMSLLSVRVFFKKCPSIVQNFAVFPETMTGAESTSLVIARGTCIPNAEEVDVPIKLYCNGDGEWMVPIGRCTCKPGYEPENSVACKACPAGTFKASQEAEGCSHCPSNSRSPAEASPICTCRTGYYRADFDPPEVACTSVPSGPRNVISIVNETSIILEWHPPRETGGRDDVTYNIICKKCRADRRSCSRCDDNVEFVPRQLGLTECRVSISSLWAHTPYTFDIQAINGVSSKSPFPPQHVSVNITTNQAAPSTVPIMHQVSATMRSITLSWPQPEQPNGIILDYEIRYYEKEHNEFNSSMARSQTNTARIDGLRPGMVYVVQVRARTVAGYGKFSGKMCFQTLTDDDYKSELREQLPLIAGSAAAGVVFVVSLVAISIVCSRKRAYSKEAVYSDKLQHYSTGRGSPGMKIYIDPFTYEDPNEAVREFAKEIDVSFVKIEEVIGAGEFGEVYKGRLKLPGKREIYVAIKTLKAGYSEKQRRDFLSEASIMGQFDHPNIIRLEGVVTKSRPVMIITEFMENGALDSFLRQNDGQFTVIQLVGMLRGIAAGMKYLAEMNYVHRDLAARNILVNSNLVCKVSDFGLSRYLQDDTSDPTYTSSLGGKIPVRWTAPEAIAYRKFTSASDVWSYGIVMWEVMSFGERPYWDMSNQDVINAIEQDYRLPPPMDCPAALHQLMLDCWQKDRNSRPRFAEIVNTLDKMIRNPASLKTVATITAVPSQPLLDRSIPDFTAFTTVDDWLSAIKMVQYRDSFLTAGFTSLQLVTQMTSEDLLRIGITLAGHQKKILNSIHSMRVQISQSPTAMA

Jak2 = Jak2 (UniProt O60674); experiment: as above
Sequence of Jak2 (O60674 whole entry, looked up): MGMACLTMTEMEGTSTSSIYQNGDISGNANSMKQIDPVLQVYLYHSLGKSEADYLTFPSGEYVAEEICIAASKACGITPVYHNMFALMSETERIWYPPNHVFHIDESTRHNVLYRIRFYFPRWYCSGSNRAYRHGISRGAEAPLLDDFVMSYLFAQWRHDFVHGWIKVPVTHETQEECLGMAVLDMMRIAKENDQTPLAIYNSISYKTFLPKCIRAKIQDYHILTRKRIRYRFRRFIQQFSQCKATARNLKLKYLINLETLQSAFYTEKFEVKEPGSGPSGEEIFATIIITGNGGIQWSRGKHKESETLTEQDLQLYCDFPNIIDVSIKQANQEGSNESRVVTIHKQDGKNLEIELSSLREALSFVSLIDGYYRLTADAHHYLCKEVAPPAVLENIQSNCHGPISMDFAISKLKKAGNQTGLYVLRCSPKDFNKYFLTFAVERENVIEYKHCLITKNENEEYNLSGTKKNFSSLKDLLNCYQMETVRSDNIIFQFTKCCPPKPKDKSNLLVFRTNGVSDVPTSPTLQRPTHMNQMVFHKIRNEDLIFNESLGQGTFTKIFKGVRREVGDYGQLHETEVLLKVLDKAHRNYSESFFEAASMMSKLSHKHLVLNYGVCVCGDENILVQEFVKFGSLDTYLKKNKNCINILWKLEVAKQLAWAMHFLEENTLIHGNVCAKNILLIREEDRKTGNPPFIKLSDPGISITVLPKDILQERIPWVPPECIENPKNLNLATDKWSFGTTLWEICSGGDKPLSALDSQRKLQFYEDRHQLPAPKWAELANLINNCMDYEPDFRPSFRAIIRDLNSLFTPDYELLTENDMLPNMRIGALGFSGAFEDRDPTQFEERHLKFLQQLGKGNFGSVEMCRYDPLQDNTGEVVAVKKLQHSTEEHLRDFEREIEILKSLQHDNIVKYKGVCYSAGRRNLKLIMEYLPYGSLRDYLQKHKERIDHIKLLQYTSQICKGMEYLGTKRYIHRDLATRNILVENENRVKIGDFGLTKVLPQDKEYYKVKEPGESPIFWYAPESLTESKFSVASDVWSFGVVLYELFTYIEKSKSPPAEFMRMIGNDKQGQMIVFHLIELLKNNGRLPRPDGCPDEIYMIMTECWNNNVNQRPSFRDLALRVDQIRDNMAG

Fyn = Fyn (UniProt P06241); experiment: as above
Sequence of Fyn (P06241 whole entry, looked up): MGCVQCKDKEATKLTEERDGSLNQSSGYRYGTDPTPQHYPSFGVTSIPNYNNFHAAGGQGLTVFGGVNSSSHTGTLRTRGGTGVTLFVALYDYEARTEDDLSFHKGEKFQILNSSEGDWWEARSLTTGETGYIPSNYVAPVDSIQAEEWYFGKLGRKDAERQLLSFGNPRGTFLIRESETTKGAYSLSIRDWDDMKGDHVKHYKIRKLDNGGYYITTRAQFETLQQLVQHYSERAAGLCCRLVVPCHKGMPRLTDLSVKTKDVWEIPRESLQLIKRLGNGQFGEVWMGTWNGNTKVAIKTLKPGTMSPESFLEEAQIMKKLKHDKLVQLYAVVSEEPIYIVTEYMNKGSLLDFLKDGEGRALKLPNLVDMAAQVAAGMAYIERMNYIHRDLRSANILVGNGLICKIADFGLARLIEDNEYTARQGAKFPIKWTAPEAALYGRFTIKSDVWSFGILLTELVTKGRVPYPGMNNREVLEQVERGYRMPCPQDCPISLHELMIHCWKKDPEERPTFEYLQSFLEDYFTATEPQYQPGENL

c-Src = experiment: as above
MERTK = MERTK (UniProt Q12866); experiment: as above
Grb2 SH2 = Grb2 SH2 (UniProt P62993); experiment: SH2 binding enrichment of the phosphorylated peptide, bacterial display (enrichment ratio); higher = better substrate or ligand; peptides without Tyr show the background
Sequence of Grb2 SH2 (P62993 whole entry, looked up): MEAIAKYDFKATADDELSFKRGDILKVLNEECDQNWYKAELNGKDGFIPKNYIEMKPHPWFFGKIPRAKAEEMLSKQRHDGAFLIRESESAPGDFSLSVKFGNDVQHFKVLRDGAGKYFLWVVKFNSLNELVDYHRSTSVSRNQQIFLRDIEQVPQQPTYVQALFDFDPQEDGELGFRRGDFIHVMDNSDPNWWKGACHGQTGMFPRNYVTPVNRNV

c-Src SH2 = experiment: as above
SHP2-C SH2 = experiment: as above
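Throughout, for SH2 binding enrichment of the phosphorylated peptide, bacterial display: peptide library displayed on the E. coli surface as eCPX fusions, selected cells deep-sequenced, score is each peptide's frequency after selection divided by its frequency in the input.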
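Throughout, for phosphorylation enrichment, bacterial display: 11-residue human phosphosite peptides and single-mutation variants displayed on the E. coli surface, counted by deep sequencing, each peptide's frequency after selection divided by its frequency in the unselected input library; frequency after pTyr selection over input frequency; kinase dosed for 20-30% of maximal phosphorylation in three min.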

Sequence of FGFR1 (P11362 whole entry, looked up): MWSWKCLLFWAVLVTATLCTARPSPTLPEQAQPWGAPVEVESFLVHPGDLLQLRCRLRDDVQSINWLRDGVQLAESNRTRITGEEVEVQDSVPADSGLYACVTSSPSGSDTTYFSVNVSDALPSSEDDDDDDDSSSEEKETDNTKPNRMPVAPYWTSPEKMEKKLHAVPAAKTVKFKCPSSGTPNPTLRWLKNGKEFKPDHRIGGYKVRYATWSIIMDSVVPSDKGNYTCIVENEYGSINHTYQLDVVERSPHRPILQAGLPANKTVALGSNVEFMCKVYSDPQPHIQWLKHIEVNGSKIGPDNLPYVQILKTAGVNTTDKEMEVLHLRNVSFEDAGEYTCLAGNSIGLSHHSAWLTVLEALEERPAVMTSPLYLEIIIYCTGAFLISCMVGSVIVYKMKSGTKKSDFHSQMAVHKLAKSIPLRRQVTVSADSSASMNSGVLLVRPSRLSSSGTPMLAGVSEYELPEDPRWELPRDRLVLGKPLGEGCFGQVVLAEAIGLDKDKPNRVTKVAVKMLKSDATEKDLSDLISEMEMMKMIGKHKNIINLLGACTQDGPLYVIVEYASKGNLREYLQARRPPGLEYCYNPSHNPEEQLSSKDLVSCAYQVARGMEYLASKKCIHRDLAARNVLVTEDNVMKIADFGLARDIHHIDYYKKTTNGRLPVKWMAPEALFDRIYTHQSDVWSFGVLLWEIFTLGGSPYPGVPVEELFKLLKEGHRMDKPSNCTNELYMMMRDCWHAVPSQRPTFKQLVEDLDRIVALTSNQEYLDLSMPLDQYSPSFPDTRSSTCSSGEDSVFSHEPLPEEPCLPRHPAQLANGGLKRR

| Sequence | phosphorylation enrichment (FGFR1) | phosphorylation enrichment (FGFR3) | phosphorylation enrichment (AncSZ) | phosphorylation enrichment (EPHB2) | phosphorylation enrichment (c-Abl (mouse)) | phosphorylation enrichment (Hck) | phosphorylation enrichment (Fes) | phosphorylation enrichment (Fer (mouse)) | phosphorylation enrichment (EPHB1) | phosphorylation enrichment (Jak2) | phosphorylation enrichment (Fyn) | phosphorylation enrichment (c-Src) | phosphorylation enrichment (MERTK) | SH2 binding enrichment (Grb2 SH2) | SH2 binding enrichment (c-Src SH2) | SH2 binding enrichment (SHP2-C SH2) |
| --- | --- | --- | --- | --- | --- | --- | --- | --- | --- | --- | --- | --- | --- | --- | --- | --- |
| FARNCYVAGQF [G6PD_Y107_S106C_YF] | 0.461 | 0.553 | 0.983 | 0.487 | 0.714 | 0.409 | 0.938 | 0.417 | 0.505 | 0.743 | 0.387 | 0.507 | 0.363 | 0.742 | 0.437 | 0.383 |
| YRAVKYLQMVG [AVPR2_Y117_C112Y] | 0.552 | 0.653 | 0.95 | 0.539 | 0.621 | 0.584 | 0.827 | 0.429 | 0.582 | 0.766 | 0.397 | 0.36 | 0.385 | 0.709 | 0.372 | 2.33 |
| YTNELYMMMRD [FGFR1_Y730_C725Y] | 2.52 | 2.27 | 1.68 | 3.13 | 0.766 | 2.85 | 1.35 | 0.982 | 5.42 | 1.35 | 1.4 | 2.18 | 5.02 | 2.09 | 1.63 | 0.645 |
| PLDGEYFTPQI [TP53_Y327_L330P] | 3.09 | 2.19 | 6.68 | 1.91 | 12.9 | 0.733 | 1.34 | 0.482 | 1.53 | 0.978 | 0.89 | 0.434 | 0.474 | 0.816 | 0.45 | 0.725 |
| IAAEYYDNLPH [DEGS1_Y284] | 7.81 | 5.34 | 1.75 | 0.813 | 0.808 | 2.42 | 1.02 | 0.874 | 0.797 | 0.98 | 0.613 | 0.782 | 0.917 | 0.88 | 1.13 | 0.542 |
| GKGGSYSKAEW [HLA-E_Y341] | 0.466 | 0.378 | 0.493 | 0.467 | 0.496 | 0.416 | 0.613 | 0.368 | 0.481 | 0.567 | 0.415 | 0.375 | 0.405 | 0.949 | 0.624 | 0.512 |
| HLPAGYIIPLQ [GAA_Y822_R819P] | 0.443 | 0.444 | 0.638 | 0.28 | 0.363 | 0.491 | 0.764 | 0.297 | 0.383 | 0.608 | 0.388 | 0.492 | 0.542 | 0.895 | 0.987 | 11.3 |
| STTSDYQWDFS [MTDH_Y364_V368F] | 1.24 | 1.27 | 1.36 | 0.776 | 0.736 | 0.524 | 1.1 | 0.598 | 0.905 | 1.14 | 0.473 | 0.58 | 0.409 | 0.821 | 0.573 | 0.637 |
| LLANAYIFVVQ [L1CAM_Y418_YF] | 1 | 1.18 | 1.46 | 1.13 | 1.44 | 0.569 | 2.13 | 0.793 | 0.757 | 1.79 | 0.606 | 0.538 | 0.482 | 1.31 | 0.396 | 0.605 |
| RELGEYGLQAF [ALDH2_Y497_YF] | 0.653 | 0.793 | 1.07 | 1.07 | 0.951 | 0.772 | 1.66 | 0.816 | 0.707 | 0.724 | 0.775 | 0.704 | 1.87 | 1.15 | 0.758 | 1.04 |
| TSKLSYLDPRI [TOP1_Y723_N722S] | 0.611 | 0.592 | 0.639 | 0.427 | 0.567 | 0.446 | 0.679 | 0.619 | 0.607 | 0.939 | 0.435 | 0.479 | 0.539 | 0.833 | 0.535 | 0.548 |
| LAEMNYVHRDL [EPHB1_Y740] | 0.412 | 0.503 | 1.32 | 0.632 | 1.15 | 0.362 | 0.709 | 0.32 | 0.441 | 1.4 | 0.529 | 0.432 | 0.659 | 0.882 | 0.403 | 0.578 |
| KIEGIYARDET [RPL35A_Y34_V33I] | 0.585 | 0.619 | 0.887 | 0.497 | 0.493 | 1.12 | 0.919 | 0.491 | 0.536 | 0.663 | 1.07 | 1.09 | 0.413 | 0.883 | 0.548 | 0.788 |
| VDSLRYIFPKL [EIF2B3_Y92_A87V_YF] | 0.486 | 0.51 | 0.704 | 0.38 | 0.85 | 0.385 | 0.9 | 0.463 | 0.449 | 0.822 | 0.372 | 0.526 | 0.531 | 1.01 | 0.752 | 1.27 |
| FTHSDYQFGQR [PKP2_Y166_S169G_YF] | 0.465 | 0.474 | 0.697 | 0.471 | 0.553 | 0.518 | 0.687 | 0.453 | 0.389 | 0.583 | 0.443 | 0.457 | 0.469 | 1 | 0.626 | 1.05 |
| SDQRRYSLIDR [CLIP2_Y972] | 0.356 | 0.421 | 0.508 | 0.444 | 0.467 | 0.366 | 0.558 | 0.412 | 0.327 | 0.479 | 0.394 | 0.358 | 0.419 | 0.833 | 3.35 | 0.861 |
